Legend:
alpha-thrombin [1] = target: T1, alpha-thrombin (Homo sapiens, UniProt P00734;P00734 328-363;364-622); assay: competition; 100-fold excess over biotinylated AYA1809007; 20 mM Tris pH 7.5, 150 mM NaCl, 0.1% BSA, 0.1% Tween 20, 100 ug/mL sheared salmon sperm DNA, 1 h, room temperature; thrombin coated at 250 nM
alpha-thrombin [2] = target: T1, alpha-thrombin; assay: ELISA; 20 mM Tris pH 7.5, 150 mM NaCl, 0.1% BSA, 0.1% Tween 20, 100 ug/mL sheared salmon sperm DNA, 1 h, room temperature; thrombin coated at 250 nM
alpha-thrombin [3] = target: T1, alpha-thrombin; assay: ELISA-based binding with competition; 100-fold excess unlabeled competitor as control; 20 mM Tris pH 7.5, 150 mM NaCl, 0.1% BSA, 0.1% Tween 20, 100 ug/mL sheared salmon sperm DNA, 1 h, room temperature; thrombin coated at 250 nM

| Binder | Kd (alpha-thrombin [3]) [nM] | other results |
| --- | --- | --- |
| AGGGGCTCTAGGGTGGGTAGGATGGTGAGACCGCAGCGT (structured_DNA) [AYA1809007 unlabeled] |  | binding result (alpha-thrombin [1]): binds |
| AGGGGCTCTAGGGTGGGTAGGATGGTGAGACCGCAGCGT (structured_DNA) [AYA1809007] |  | binding result (alpha-thrombin [2]): binds |
| GCGGTGTTGCTGGGGTTGGGAGGTTGGAGGAAGCAATCGC (structured_DNA) [AYA1809002] | 10 |  |
| TCGTCAAGGTACGGTTGGGGGGGTGGGTGTTGACGTTGAA (structured_DNA) [AYA1809004] | 13 |  |

From publication PMC10526462
